Laboratory results as given in IntAct's records for PubMed 11571280.

B1: Polycomb protein Pcl (Drosophila melanogaster (Fruit fly)), Q24459 (parent)
chain: MMNNHFHLQHDHPPQNVAHPFMQQPSTAVPSAPPATYGYLAQPAGQQPQWMTTTYQILPPSVGPATVAKRYYATTGPQTTHPTHPSTIQITNSFAQQSTPPKQQAATSCSPFKANNIRIISTAPSVYSLNKPPQEAHSTYAPVQSYYLPSGGGQTAGQINLLAASGTGKQLQPPPLVPVTNSTSPPSTVVLDRINICINNHYTETPTSLSSSLTTAQQPSPIIPAIQHKAILPLIDSSTADSSSCSSSSVSSSSYSGTATTSAAVVIVDEPDSTTTTPQTPPTTPEAMSSPGKSSPSPPLLATQSLLKGVNSMKPSFKTVEAAPPTPPTPPSPPPPPPAPPVAAPSPAVTYALQEDVFIKCNDGRFYLGTIIDQTSDQYLIRFDDQSEQWCEPDKLRKLGGGSSITAGGGGASTTESTNTSPSGPMCVACKRSDIEDVVEICERCGRGYHRGCTVEIVTGSGIWSCKRCAKPMKMQQPVSHKITKPAGICRQLPYHADKLSWDEKHRVNEEQIYCYCGKPGKFDHNMLQCCKCRNWFHTQCMQNFKKKLLRGDMFFVFCCTVCNNGIEFVRRMQIEWVDVLHIALYNLRKHQHQKYHHLLNDIWPFILEQRHQLPICEKWRTLPETALMERLKQTLKDYSDRFVCGREFKRAPAFYALRHSGPPHIPKVFLEPHEELSDELLEKRFKLMLMPEEPDEGANELPKRVPKDVYEFNTDEDDPVETSEDEIPIKQIIEKAKKQAAQKADKHDELPLKPDLADDNANDGDPGKLPAPIPPLLDANSSRKRKAFRLSKRYDNSRNHCDLSSDENSSSSRGTSSLDLIIPPPVNFLGRNNPFLMATPKKASQGRSISVGTGVGVNGIINSIFKLKGTSKEQPRMVRTIKRRLSAKDITIGPNQEVRRRRTRRLTTAIEVISTTTINPIPSHYLPIYAKDLQPPAPPMGKPTHGRLLRQRPQKQSPSQSRRNSTSSTATSSSSNGIGAPGHSMLDLKQSVNKYFGGAMNRIDAGEPFAIRAKRRMGNGQVQYLVEWGGDTATTAIGLLGN

Variants of: B1
Conditions: with ez_drome E(z)

effect of a mutation on the interaction | Variant
decreasing interaction | C430A
decreasing interaction | C430S
decreasing interaction | C517A
decreasing interaction | C517S
